One may read the pKd as the negative decadic logarithm of the Kd, by convention in mol/L. A high value points to a low Kd.

Consider one substance from patent publication EP2265113B1.

pKd: −log10 of the molar value.

The target in test [1] is H-ferritin receptors (binding sites) on rat brain microvasculature (isolated microvessels). In words: saturation binding of 125I-H-ferritin to rat brain microvessels, one-site global fit.
Test [2] concerns the target H-ferritin receptors (binding sites) on bovine retinal endothelial cells (BREC cell homogenate). Put plainly: homologous competition: unlabelled H-ferritin against 0.4 nM 125I-H-ferritin on BREC homogenate, one-site competition fit.
The target is the same in test [3]. In words: saturation binding of 125I-H-ferritin to BREC homogenate, one-site global fit.

For the substance “recombinant human H-ferritin (His tagged, expressed in E. coli, nickel column purified) (from UniProt P02794 1-183) (ligand)”, the Bmax (fmol/mg protein) in test [1] was found to be 573; in test [3], 466. In addition, the pKd in test [1] was 8.10; in test [2], 8.70; in test [3] it was 8.57.
